Test results as given in patent US20220073643A1 (NANJING GENSCRIPT BIOTECH, published 2022).

B1: 275B2G2 (antibody, V domains shown)
VH: EVMLVESGGGLVKPGGSLKLSCAASGFTFRDYTMSWVRQTPEKRLEWVATSIIGGTYTYYPDSVKGRFTISRDNVKNTLYLQMSSLRSEDTAMYYCSRLGRGNAMDYWGQGTSVTVSS
VL: DIVMTQSPSSLTVTAGEKVTMSCKSSQSLLNSGNQKNYLTWYQQKPGQPPKLLIYWASTRESGVPDRFTGSGSGTDFTLTISSVQAEDLAVYYCQNDYSYPFTFGSGTKLEIK
notes: mouse hybridoma mAb
B2: 271B1B6 (antibody, V domains shown)
VH: QAYLQQSGAELVRSGASVKMSCKASGYTFTNYNIHWVKQTPGQGLEWIGYIYPGNGGNYYNQKFKGKATLTADTSSITAYMQISSLTSEDSAVYFCARDYYGNSFAYWGQGTLVTVSA
VL: DIVMTQSPSSLTVTAGEKVTMNCKSSQSLLNSGNQKNYLTWYQQKPGQPPKLLIYWASTRESGVPDRFTGSGSGTDFTLTISSVQAEDLAIYYCQNDYYYPLTFGAGTKLELK
notes: mouse hybridoma mAb
B3: 279E8B8 (antibody, V domains shown)
VH: QAYLQQSGAELVRSGASVKISCKASGYTFASHNMHWVKQTPGQGLEWIGYIYPGNGGTKYNQKFTGKATLSADTSSSTAYLQISSLTSEDSAVYFCARDYFGNSFVYWGQGTLVTVSA
VL: DIVMTQSPSSLTEKAGEKVSMRCKSSQSLLNSGNQKNYLTWYQQKPGQPPKLLIYWASTRESGVPDRFTGSGSGTDFTLTISSVQADDLAVYYCQNDYMYPFTFGAGTKLELK
notes: mouse hybridoma mAb
B4: 265E6G2 (antibody, V domains shown)
VH: QAYLQQSGAELVRSGASVKMSCKASGYTFTSYNMHWVKQTPGQGLEWIGYIYPGNGGTNYNQKFKGKATLTADTSSSTAYMQISSLTSEDSAVYFCARDYYGNSFAYWGQGTLVTVSA
VL: DLVMTQSPSSLTVTAGEKVTMSCKSSQSLLNSGNQKNYLTWYQQKPGQPPKLLIYWASTRESGVPDRFTGSGSGTDFTLTISNIQAEDLAVYYCQNDYSYPLPFGAGTKLELR
notes: mouse hybridoma mAb
B5: 286C7F11 (antibody, V domains shown)
VH: QVQLKESGPGLVAPSQSLSITCTVSGFSLTDYGVSWIRQPPGKGLEWLGVIWNRGNTYYNSALKSRLSISKDNSKSQVFLRMNSLQTDDTAMYYCAKHDFLRFLDYWGQGTTLTVSS
VL: DVVMTQSPSSLTVTAGEKVTMSCKSSQSLLNSGNQKNYLTWYQQKPGQPPKILIYWASTRESGVPDRFTGSGSGTDFSLTITSVQAEDLAVYYCLNDYYYPLTFGAGTKLELK
notes: mouse hybridoma mAb
B6: 391F1G2 (antibody, V domains shown)
VH: DVQLVESGGGLVQPGGSRKLSCAASGFTFSSFGMHWVRQAPEKGLEWVAYISSGSSPIYYADTVKGRFTISRDNPKNTLFLQMTSLRSEDTAMYFCARIYYGNSFAYWGQGTLVTVSA
VL: DIVMTQSPSSLTVTAGEKVAMSCKSSQTLLNSGNQKNYLTWYQQKPGQPPKLLLYWASTRESGVPDRFTGSGSGTDFTLTISSVQAEDLAVYYCQNAYYYPLTFGSGTKLELK
notes: mouse hybridoma mAb
B7: 406F11G8 (antibody, V domains shown)
VH: DVQLVESGGGLVQPGGSRKLSCAASGFTFSSFGMHWVRQAPEKGLEWVAYISSGSSPIYYADTVKGRFTISRDNSKNTLFLQMTSLRSEDTAMYFCARIYYGNSFAYWGQGTLVTVSA
VL: DIVMTQSPSSLTVTAGEKVAMSCKSSQTLLNSGNQKNYLTWYQQKPGQPPKLLIYWASTRESGVPDRFTGSGSGTDFTLTISSVQAEDLAVYYCQNAYYYPLTFGSGTKLELK
notes: mouse hybridoma mAb
B8: 392A11C8 (antibody, V domains shown)
VH: DVQLVESGGGLVQPGGSRKLSCAASGFTFSGFGMHWIRQTPEKGLEWVAYISSGSRPIYYADTVKGRFTISRDNPKNTLFLQMTSLRSEDTAMYFCARFYYGNSFDHWGQGTLVTVSA
VL: DIVMTQSPSFLTVTAGEKVTMSCRSSQSLLNSGNQKNYLTWYQQKPGQPPKLLIYWASTRESGVPDRFTGSGSGTDFTLTISSVQAEDLALYYCQNAYSFPLTFGAGTKLELK
notes: mouse hybridoma mAb
B9: 391H11H3 (antibody, V domains shown)
VH: DVQLVESGGGLVQPGGSRKLSCAASGFTFSGFGMHWIRQTPEKGLEWVAYISSGSRPIYYADTVQGRFTISRDNPKNTLFLQMTSLRSEDTAMYFCARFYYGNSFDHWGQGTLVTVSS
VL: DIVMTQSPSFLTVTAGEKVTMSCKSSQSLLNSGNQKNYLTWYQQKPGQPPKLLIYWASTRESGVPDRFTGSGSGTDFTLTISSVQAEDLALYYCQNAYSFPLTFGAGTKLELK
notes: mouse hybridoma mAb
B10: 394C2G5 (antibody, V domains shown)
VH: DVQLVESGGGLVQPGGSRKLSCAASGFTFSGFGMHWIRQTPEKGLEWVAYVSSGSRPIYYADTVKGRFTISRDNPKNTLFLQMTSLRSEDTAMYFCARFYYGNSFDHWGQGTLVTVSA
VL: DIVMTQSPSFLTVTAGEKVTMSCKSSQSLLNSGNQKNYLTWYQQKPGQPPKLLIYWASTRESGVPDRFTGSGSGTDFTLTINNVQAEDLALYYCQNAYSFPLTFGAGTKLELT
notes: mouse hybridoma mAb
B11: 395B3C11 (antibody, V domains shown)
VH: DVQLVESGGGLVQPGGSRKLSCAASGFTFSGFGMHWIRQTPEKGLEWVAYISSGSRPIYYADTVQGRFTISRDNPKNTLFLQMTSLRSEDTAMYFCARFYYGNSFDHWGQGTLVTVSS
VL: DIVMTQSPSFLTVTAGEKVTMSCKSSQSLLNSGNQKNYLTWYQQKPGQPPKLLIYWASTRESGVPDRFTGSGSGTDFTLTISSVQAEDLALYYCQNAYSFPLTFGAGTKLELK
notes: mouse hybridoma mAb
B12: 406E1H7 (antibody, V domains shown)
VH: DVQLVESGGGLVQPGGSRKLSCAASGFTFSGFGMHWIRQTPEKGLEWVAYISSGSRPIYYADTVQGRFTISRDNPKNTLFLQMTSLRSEDTAMYFCARFYYGNSFDHWGQGTLVTVSS
VL: DIVMTQSPSFLTVTAGEKVTMSCKSSQSLLNSGNQKNYLTWYQQKPGQPPKLLIYWASTRESGVPDRFTGSGSGTDFTLTISSVQAEDLALYYCQNAYSFPLTFGAGTKLELK
notes: mouse hybridoma mAb
B13: 407A8G10 (antibody, V domains shown)
VH: DVQLVESGGGLVQPGGSRKLSCAASGFTFSGFGMHWIRQTPEKGLEWVAYISSGSRPIYYADTVKGRFTISRDNPKNTLFLQMTSLRSEDTAMYFCARFYYGNSFDHWGQGTLVTVSA
VL: DIVMTQSPSFLTVTAGEKVTMSCRSSQSLLNSGNQRNYLTWYQQKPGQPPKLLIYWASTRESGVPDRFTGSGSGTDFALTISSVQAEDLALYYCQNAYSFPLTFGAGTKLELK
notes: mouse hybridoma mAb
B14: 407D8G1 (antibody, V domains shown)
VH: DVQLVESGGGLVQPGGSRKLSCAASGFTFSGFGMHWIRQTPEKGLEWVAYISSGSRPIYYADTVQGRFTISRDNPKNTLFLQMTSLRSEDTAMYFCARFYYGNSFDHWGQGTLVTVSS
VL: DIVMTQSPSFLTVTAGEKVTMSCKSSQSLLNSGNQKNYLTWYQQKPGQPPKLLIYWASTRESGVPDRFTGSGSGTDFTLTISSVQAEDLALYYCQNAYSFPLTFGAGTKLELK
notes: mouse hybridoma mAb
B15: 407E11H8 (antibody, V domains shown)
VH: DVQLVESGGGLVQPGGSRKLSCAASGFTFSDFGMHWIRQTPEKGLEWVAYISSGSRPIYYADTVKGRFTISRDNPKNTLFLQMTSLRSEDTAMYFCVRFYFGNSFDHWGQGTLVTVSA
VL: DIVMTQSPSFLTVTAGEKVTMTCRSSQNLLNSGNLKNYLTWYQQKPGQPPKLLISWASTRESGVPDRFTGSGSGTDFTLTISSVQPEDLALYYCQNAYSFPLTFGAGTKLELK
notes: mouse hybridoma mAb
B16: 409D1A7 (antibody, V domains shown)
VH: DVQLVESGGGLVQPGGSRKLSCAASGFTFSGFGMHWIRQTPEKGLEWVAYISSGSRPIYYADTVKGRFTISRDNPKNTLFLHMTSLRSEDTAMYFCARFYYGNSFDHWGQGTLVTVSA
VL: DIVMTQSPSFLTVTAGEKVTMNCKSSQSLLNSGNQRNYLTWYQQKPGQPPKLLIYWASTRESGVPDRFTGSGSGTDFTLTISSVQAEDLALYYCQNAYSFPLTFGAGTKLELN
notes: mouse hybridoma mAb
B17: 409G10G6 (antibody, V domains shown)
VH: DVQLVESGGGLVQPGGSRKLSCAASGFTFSGFGMHWIRQTPEKGLEWVAYISSDSRPIYYADTVKGRFTISRDNPKNTLFLQMTSLRSEDTAMYFCGRFYYGNSFDHWGQGTLVTVSA
VL: DIVMTQSPSFLTVTAGEKVTLSCRSSQSLLNSGNQRNYLTWYQQKPGQPPKLLIYWASTRESGVPDRFTGSGSGTDFTLTISSVQAEDRALYYCQNAYSFPLTFGTGTKLELR
notes: mouse hybridoma mAb
B18: 410D9G2 (antibody, V domains shown)
VH: DVQLVESGGGLVQPGGSRKLSCAASGFTFSGFGMHWIRQTPEKGLEWVAYISSGSRPIYYADTVQGRFTISRDNPKNTLFLQMTSLRSEDTAMYFCARFYYGNSFDHWGQGTLVTVSS
VL: DIVMTQSPSFLTVTAGEKVTMSCKSSQSLLNSGNQKNYLTWYQQKPGQPPKLLIYWASTRESGVPDRFTGSGSGTDFTLTISSVQAEDLALYYCQNAYSFPLTFGAGTKLELK
notes: mouse hybridoma mAb
B19: 411A6E3 (antibody, V domains shown)
VH: DVQLVESGGGLVQPGGSRKLSCAASGFTFSDFGMHWIRQTPEKGLEWVAYISSGSRPIYYADTVKGRFTISRDNPKNTLFLQMTSLRSEDTAMYFCVRFYFGNSFDHWGQGTLVTVSA
VL: DIVMTQSPSFLTVTAGEKVTMTCRSSQNLLNSGNLKNYLTWYQQKPGQPPKLLISWASTRESGVPDRFTGSGSGTDFTLTISSVQPEDLALYYCQNAYSFPLTFGAGTKLELK
notes: mouse hybridoma mAb
B20: 411B4G4 (antibody, V domains shown)
VH: DVQLVESGGGLVQPGGSRKLSCAASGFTFSGFGLHWIRQTPEKGLEWVAYISSGSRPIYYADTVKGRFTISRDNPKNTLFLQMTSLRSEDTAMYFCARFYYGNSFDHWGQGTLVTVSA
VL: DIVMTQSPSFLTVTAGEKVTMSCRSSQSLLNSGNQRNYLTWYQQKPGQPPKLLIYWASTRESGVPDRFTGSGSGTDFTLTISSVQAEDLALYYCQNAYSFPLTFGAGTKLELK
notes: mouse hybridoma mAb
B21: 411G3E10 (antibody, V domains shown)
VH: DVQLVESGGGLVQPGGSRKLSCAASGFTFSGFGMHWIRQTPEKGLEWVAYISSGSRPIYYADTVKGRFTISRDNPKNTLFLQMTSLRSEDTAMYFCARFYYGNSFDHWGQGTLVTVSA
VL: DIVMTQSPSFLTVTAGEKVTMNCRSSQSLLNSGNQKNYLTWYQQKPGQPPKLLIYWASTRESGVPDRFTGSGSGTDFTLTISSVQAEDLALYYCQNAYSFPLTFGAGTKLELK
notes: mouse hybridoma mAb

What follows are binders tested against T1, human Claudin18.2 (human) (assay: cell ELISA, Claudin18.2-expressing HEK293T cells).
T1 construct: also called CLDN18.2
Outline: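 Claudin18.2-expressing HEK293T stable cells (1.5×10⁶ cells/ml in 5% skim milk/PBS blocking buffer) were incubated 1 h at room temperature in plates pre-blocked overnight at 4° C. EC₅₀ was derived by four-parameter curve fit.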
B1 showed an EC50 of roughly 2.06 nM. Binder B2 has an EC50 of roughly 0.429 nM. Work on B3 yielded an EC50 of roughly 9.62 nM. For B4, the EC50 was roughly 14 nM. B5 was tested, and the EC50 was roughly 0.0831 nM. In the case of B6, the EC50 is reported as roughly 2.66 nM. B7 showed an EC50 of 1.83 nM. With B8 the EC50 was 1.21 nM. Work on B9 yielded an EC50 of 2.97 nM. Work on B10 yielded an EC50 of 2.81 nM. B11 showed an EC50 of 3.58 nM. B12 showed an EC50 of 4.33 nM. For B13, the EC50 was 2.14 nM. In the case of B14, the EC50 is reported as 2.38 nM. Binder B15 has an EC50 of 1.24 nM. In the case of B16, the EC50 is reported as 2.05 nM. For B17, the EC50 was 2.19 nM. For B18, the EC50 was 4.33 nM. B19 gave an EC50 of roughly 2.6 nM. B20 was tested, and the EC50 was 2.85 nM. For B21, the EC50 was 2.45 nM.
